Patent US20030180295A1, “Angiocidin: a Cys-Ser-Val-Thr-Cys-Gly specific tumor cell adhesion receptor” (Philadelphia Health and Education Corporation, priority 1999, published 2003)
Values belong to the substance of their own block, whether it stands above or below them. No end group written: not given here. *: point of attachment. Acm = CC(=O)NC*

Columns and labels:
[1] = molecular target: T1, biotin-angiocidin complex binding to TSP-1 (Homo sapiens, UniProt P55036, INS254GER); assay: Biotin-avidin receptor binding assay: competition; conditions: for competition of biotin-angiocidin binding to TSP-1: Example 23, FIGS. 29 and 30; for peptide competition of TSP-1 receptor binding: Example 25, peptide 1 mg/ml, FIG. 32
T1 sequence (P55036 with tags, fused parts or gaps INS254GER): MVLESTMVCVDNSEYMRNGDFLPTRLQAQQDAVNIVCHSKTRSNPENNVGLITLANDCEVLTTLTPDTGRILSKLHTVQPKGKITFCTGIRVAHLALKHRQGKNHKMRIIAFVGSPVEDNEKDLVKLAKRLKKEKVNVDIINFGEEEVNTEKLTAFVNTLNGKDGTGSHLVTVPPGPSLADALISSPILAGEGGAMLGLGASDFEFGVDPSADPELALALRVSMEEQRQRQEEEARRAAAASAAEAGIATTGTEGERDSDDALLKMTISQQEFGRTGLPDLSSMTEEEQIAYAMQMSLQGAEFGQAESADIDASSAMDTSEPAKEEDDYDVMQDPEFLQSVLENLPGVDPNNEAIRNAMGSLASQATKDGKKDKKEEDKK
Experimental: In the following experiments, TSP-1 was covalently bound to a substrate, biotinylated angiocidin was added to the plate, and avidin-peroxidase was added to measure how much biotinylated angiocidin was attached to the TSP-1. The avidin-peroxidase was measured using a spectrophotometer at an absorbance of 450 nm.
Free angiocidin was added to the system to compete with the biotinylated angiocid in. […] Immobilized BSA was used as a negative control.
The TSP-1 peptide Cys-Ser-Val-Thr-Cys-Gly (SEQ ID NO: 1) was added to the system to compete with the TSP-1 on the plate for binding with the biotinylated angiocidin. The scrambled peptide Val-Cys-Thr-Gly-Ser-Cys (SEQ ID NO: 15) was used as a negative control and had no effect.
The avidin-biotin system discussed above was used to evaluate the competitive effect of various peptides on the binding of TSP-1 and angiocidin. […] The scrambled peptide Val-Cys-Thr-Gly-Ser-Cys-Gly (SEQ ID NO: 21) and the d-orientation peptide d-Cys-Ser-Val-Thr-Cys-Gly (SEQ ID NO: 22) were used as negative controls.

[2] = molecular target: T2, TSP-1 (Homo sapiens, UniProt P07996); assay: Affinity Sensor System (resonant mirror biosensor): binding to TSP-1 coupled to cuvette; conditions: peptide alone, TSP-1 immobilized in cuvette
T2 sequence (P07996 19-1170): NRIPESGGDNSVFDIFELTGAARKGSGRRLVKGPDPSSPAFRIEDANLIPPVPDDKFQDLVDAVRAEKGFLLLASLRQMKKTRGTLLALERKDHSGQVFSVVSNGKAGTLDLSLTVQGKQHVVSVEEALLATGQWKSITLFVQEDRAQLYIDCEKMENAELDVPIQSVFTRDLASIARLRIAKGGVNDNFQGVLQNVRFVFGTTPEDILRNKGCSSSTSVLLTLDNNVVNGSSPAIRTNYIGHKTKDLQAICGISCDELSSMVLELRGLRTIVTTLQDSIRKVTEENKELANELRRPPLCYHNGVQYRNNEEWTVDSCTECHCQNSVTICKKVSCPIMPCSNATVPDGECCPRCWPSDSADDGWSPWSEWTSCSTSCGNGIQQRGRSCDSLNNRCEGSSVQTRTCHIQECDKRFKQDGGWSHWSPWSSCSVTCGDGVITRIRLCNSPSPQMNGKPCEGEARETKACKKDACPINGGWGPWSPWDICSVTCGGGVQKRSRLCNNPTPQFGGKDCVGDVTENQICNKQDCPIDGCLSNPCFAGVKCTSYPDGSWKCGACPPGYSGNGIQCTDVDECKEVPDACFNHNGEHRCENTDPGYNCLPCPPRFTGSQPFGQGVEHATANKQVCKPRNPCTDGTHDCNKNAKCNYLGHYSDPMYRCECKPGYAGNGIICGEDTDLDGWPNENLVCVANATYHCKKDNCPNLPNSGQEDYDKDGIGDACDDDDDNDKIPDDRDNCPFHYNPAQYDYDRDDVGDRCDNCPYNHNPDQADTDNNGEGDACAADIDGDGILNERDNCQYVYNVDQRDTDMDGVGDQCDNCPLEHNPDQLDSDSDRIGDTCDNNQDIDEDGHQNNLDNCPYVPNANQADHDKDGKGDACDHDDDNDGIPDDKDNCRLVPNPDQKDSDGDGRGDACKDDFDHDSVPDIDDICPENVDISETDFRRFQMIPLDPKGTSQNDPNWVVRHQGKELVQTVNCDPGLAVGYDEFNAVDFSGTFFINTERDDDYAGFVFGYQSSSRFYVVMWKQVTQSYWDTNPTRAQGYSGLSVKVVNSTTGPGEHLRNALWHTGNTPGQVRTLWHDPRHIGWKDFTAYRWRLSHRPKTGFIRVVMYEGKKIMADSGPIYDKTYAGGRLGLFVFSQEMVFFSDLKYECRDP
Experimental: (§1) Binding of undenatured (in the ligand blot protocol above, the receptor is denatured by SDS) recombinant receptor to TSP-1 was evaluated using the Affinity Sensor System, Cambridge, UK. This is an optical binding method that uses a cuvette to which either ligand or receptor is covalently coupled. A laser beam is used to detect bound proteins to the protein-derivatized cuvette surface. This method is highly sensitive and measures both the association and dissociation rate constants for ligand receptor interactions. The instrument assumes that one molecule of receptor binds one molecule of TSP-1 and calculates the dissociation constant (KD) according to the following relationships:
1) kass[R][TSP-1]=kdiss[R-TSP-1] at equilibrium, where kass is the second order rate constant for association and kdiss is the first order rate constant for dissociation
2) KD=[R][TSP-1]/[R-TSP-1]=kdiss/kass
3) [R-TSP-1]t=[R-TSP-1]eq[1-exp(-kont)], where the instrument response measure in arc seconds is proportional to receptor-TSP-1 complex R-TSP-1].
4) kon=kass[L]+kdiss where kon is the pseudo-first order rate constant for receptor TSP-1 interaction.
(§2) About 1 μg of TSP-1 was coupled to the cuvette through its amino groups to COOH groups on the cuvette surface. Unreacted groups on the cuvette surface were then blocked with ethanolamine and albumin. […] A dissociation constant of […] was calculated from a plot of the pseudo first order rate constant for association versus the concentration of the receptor, as shown in FIG. 7. Instrument response vs time readings shown in FIG. 8, where the instrument response is proportional to the concentration of receptor-TSP-1 complex, were used to plot the data points on FIG. 7.
(§3) […] The peptides used were Val-Cys-His-Ser-Lys-Thr-Arg (SEQ ID NO: 8), Val-Cys(Acm)-His-Ser-Lys-Thr-Arg (SEQ ID NO: 9), and Pro-His-Ser-Arg-Asn (SEQ ID NO: 10). The first two peptides are derived from the binding portion of the receptor, where it interacts with the Cys-Ser-Val-Thr-Cys-Gly (SEQ ID NO: 1) portion of the TSP-1 protein. The third peptide is a control.

[3] = test system: Bovine aortic endothelial cells (BAEC); assay: ALAMAR BLUE cell viability assay; format: cell-based; conditions: for cell viability, angiocidin and fragments: Example 27, FIG. 34
Experimental: Bovine aortic endothelial cells (BAEC), human umbilical vein endothelial cells (HUVEC), fibroblast cells, A549 human lung carcinoma cells (A549), MDA-MB231 human breast carcinoma cells (MB231), MCF7 human breast carcinoma cells (MCF7) were treated with 37 μg/ml of receptor, or buffer alone, for 24 hours. Viability of the cells was measured using the ALAMAR BLUE™ assay, which measures the capacity of cells to metabolize the ALAMAR BLUE™ dye. The ALAMAR BLUE™ assay (available from Biosource International, Camarillo, Calif.) quantitatively measures the proliferation of cell lines and can establish the relative cytotoxicity of chemical agents. The assay incorporates a fluorometric/colorimetric growth indicator based on detection of metabolic activity. The system incorporates an oxidation-reduction (redox) indicator that both fluoresces and changes color in response to chemical reduction of growth medium resulting from cell growth. This causes the redox indicator to change from its oxidized, non-fluorescent, blue form to its reduced, fluorescent, red form. Data can be collected using either fluorescence-based instrumentation (530-560 nm excitation wavelength and 590 nm emission wavelength) or absorbance-based instrumentation (570 nm and 600 nm).
BAEC and BSM cells were treated with increasing concentrations of angiocidin (0, 0.625, 1.25, 2.5, 5, 15, 26 and 37 μg/ml) for 24 hours. Cell viability was measured using the ALAMAR BLUE Tm assay. […] In contrast, BSM cells are unaffected.
The methods of Example 21 were followed, except BAEC cells were used. Additionally, TSP-1 was added at both 20 μg/ml and 5 μg/ml.
As discussed in Example 19 above, angiocidin was added to BAEC cells. Fragments of angiocidin were added as well. […] GST was used as a negative control. V36-R42, the active site of the antisecretory factor, had no effect, illustrating that angiocidin plays a different role from antisecretory factor.
Bovine aortic endothelial cells (BAEC) were cultured overnight in serum-free media containing either 37 μg/ml his-tagged angiocidin or his-tagged GST. Both angiocidin and GST were expressed in bacteria transformed with the pTrcHisA expression vector and purified on nickel affinity chromatography under non-denaturing conditions. Viability was measured by the ALAMAR BLUE™ assay.
This study examined the effect of anti-angiocidin antibody on angiocidin-mediated inhibition of BAEC viability. BAEC were cultured overnight in serum-free media containing either 5 μg/ml angiocidin, 5 μg/ml angiocidin plus 100 μg/ml control IgG, or 5 μg/ml angiocidin plus 100 μg/ml anti-angiocidin IgG. Viability was measured using the ALAMAR BLUE™ assay, described above.
The endothelial cells (BAEC) were incubated overnight 37 μg/ml of the angiocidin, fragments, and GST. Viability was measured using the ALAMAR BLUE™ assay.

[4] = test system: B16-F10 Melanoma Cells; assay: Cell adhesion to immobilized receptor peptides; format: cell-based, mouse; conditions: Example 12, FIG. 14
Experimental: For the adhesion assay, in a 96 well plate, duplicate wells were covered with either TSP-1 (40 μg/ml), fibronectin (40 μg/ml), or and 1% bovine serum albumin (BSA). The wells were dried out overnight and then blocked with BSA. 100 μl of a suspension containing 2×10^5 cells were plated in the protein covered wells and incubated at 37^□ C. for 20 minutes to 1 hour. The non-adherent cells were removed and the wells were washed with a Hepes buffer. The adherent cells were fixed with 2.5% glutaraldehyde for 10 minutes and stained with 0.2% Giemsa. The stain was washed off and the cells were counted in a field of 1 mm square. Cells adhering to BSA were considered background while cells adhering to fibronectin were the positive control.
The method of Example 12 was followed except the receptor peptides Val-Cys-His-Ser-Lys-Thr-Arg (SEQ ID NO: 8) and Val-Cys(Acm)-His-Ser-Lys-Thr-Arg (SEQ ID NO: […]) were immobilized on the plates. TSP-1 and fibronectin were also immobilized on plates, as well as negative control peptides (Ala-Ser-Val-Thr-Ala-Arg (SEQ ID NO: 11) and Pro-His-Ser-Arg-Asn (SEQ ID NO: 10)) and bovine serum albumin. […] This provides support for the theory that another protein may be associated with TSP-1 and its receptor, or that the receptor is released and rebound to the membrane of the cell by another protein.

[5] = molecular target: T3, receptor-TSP-1 complex (Homo sapiens, UniProt P55036, INS254GER); assay: Affinity Sensor System: peptide competition of receptor binding to immobilized TSP-1; conditions: 10 fold molar excess of peptide
T3 construct: Full length cDNA cloned in the PBK-CMV vector was used as a template; 6xHis (pTrcHisA leader) (N); made in house; host or cells: bacteria (pTrcHisA vector)
T3 sequence (P55036 with tags, fused parts or gaps INS254GER): T1 sequence (P55036 with tags, fused parts or gaps INS254GER)
Experimental: as §1, §2, §3

[6] = molecular target: T2, TSP-1; assay: Optical binding of angiocidin fragments to TSP-1 derivatized cuvette; conditions: test proteins at 10 nm in PBS buffer
Experimental: This study examines the amino terminal (Met1-Lys132) and carboxy terminal (IIe248-Lys380) portions of angiocidin (SEQ ID NOS: 24 and 25, respectively). The binding of undenatured recombinant angiocidin fragments was compared to full length angiocidin. GST was used as a negative control. Binding was evaluated using an optical binding method that uses a cuvette to which TSP-1 is covalently coupled. A laser beam was used to detect whether the test protein (fragments, angiocidin, or GST) is bound to the TSP-1 derivatized cuvette surface. The cuvette was derivatized with 1 μg of TSP-1. The cuvette surfaces were blocked with a 1% BSA solution to prevent nonspecific binding. The test proteins were added at a concentration of […] in a PBS buffer.

Substance: CSVTCG (cysteine pairing not given here) [Cys-Ser-Val-Thr-Cys-Gly (SEQ ID NO: 1), TSP-1 peptide]
competition of biotin-angiocidin binding to TSP-1 [1]: effectively competed with TSP-1 for the biotin-angiocidin complex
peptide competition of TSP-1 receptor binding [1]: effectively inhibited binding

Substance: KVWVLPI
peptide competition of TSP-1 receptor binding [1]: inhibited the binding

Substance: Pro-His-Ser-Arg-Asn (PHSRN) [Pro-His-Ser-Arg-Asn (SEQ ID NO: 10), negative control peptide, reference compound]
direct binding to immobilized TSP-1 [2]: did not

Substance: V36-R42: the active site of the antisecretory factor (VCHSKTR; UniProt P55036 36-42, looked up, fragment) [reference compound]
cell viability, angiocidin and fragments [3]: had no effect

Substance: VCTGSC (cysteine pairing not given here) [Val-Cys-Thr-Gly-Ser-Cys (SEQ ID NO: 15), scrambled peptide, negative control]
competition of biotin-angiocidin binding to TSP-1 [1]: had no effect

Now from value to substance, other results behind:

direct binding to immobilized TSP-1 [2]: bind directly to the immobilized TSP-1
Substance: Val-Cys(Acm)-His-Ser-Lys-Thr-Arg (VC(Acm)HSKTR)
cell adhesion to immobilized peptide [4]: cause the cells to adhere to the plates, with similar affinity to the positive controls fibronectin and TSP-1

extent of receptor binding, % of buffer control [5]: 88%
Substance: Val-Cys(Acm)-Thr-Gly-Ser-Cys(Acm) (VC(Acm)TGSC(Acm)) [scrambled peptide]

binding to TSP-1 derivatized cuvette [6]: show no binding activities
Substance: carboxy terminal fragment: carboxy terminal (IIe248-Lys380) portion of angiocidin (SEQ ID NO: 25)
anti-endothelial activity compared to angiocidin ([3]; 37 μg/ml, overnight): had activity levels similar to the negative control
cell viability, angiocidin and fragments [3]: did not affect cell viability

peptide competition of TSP-1 receptor binding [1]: inhibited binding
Substance: d-Gly-Cys(Acm)-Thr-Val-Ser-Cys(Acm) (GCTVSC; not fully specified (residues 2, 3, 4, 5, 6); printed as d-Gly-Cys(Acm)-Thr-Val-Ser-Cys(Acm); cysteine pairing not given here; also: d- prefix stated for the peptide (mirror image, D-orientation)) [mirror image acetylated peptide]
